For 1 substance, stoichiometry N results are on record in article PMC8397727, “The structure of the bacterial DNA segregation ATPase filament reveals the conformational plasticity of ParA upon DNA binding” (Nature Communications, 2021).

This assay deals with Vibrio cholerae chromosome 2 ParA (ParA2vc) (Vibrio cholerae). In words: negative-stain EM; ParA2vc 1 mg/ml with or without 3.5 mM nucleotide and MgCl2, 30 °C 15 min, diluted 1/100 in 100 mM NaCl, 50 mM Tris pH 7.5; no DNA; 2D classification of particles; monomers to dimer.

Regarding “Vibrio cholerae chromosome 2 ParA (ParA2vc)”, the stoichiometry N (in general, the number of molecules, sites or subunits per partner or assembly) amounted to 2.
